Source: patent US20020081719

Key:
PPARα/RXR heterodimer = PPARα/RXR heterodimer (UniProt Q07869+P19793); assay: EMSA; settings: cooperativity ratio; 0.5 mM ZnCl2, 4 C
PPARγ/RXR heterodimer = PPARγ/RXR heterodimer (UniProt P37231+P19793); assay: EMSA; settings: 0.5 mM ZnCl2, 4 C
[1] = cooperativity ratio, dimer and tetramer complexes

Chain of PPARγ/RXR heterodimer (P37231 whole entry, chain 1 of 2): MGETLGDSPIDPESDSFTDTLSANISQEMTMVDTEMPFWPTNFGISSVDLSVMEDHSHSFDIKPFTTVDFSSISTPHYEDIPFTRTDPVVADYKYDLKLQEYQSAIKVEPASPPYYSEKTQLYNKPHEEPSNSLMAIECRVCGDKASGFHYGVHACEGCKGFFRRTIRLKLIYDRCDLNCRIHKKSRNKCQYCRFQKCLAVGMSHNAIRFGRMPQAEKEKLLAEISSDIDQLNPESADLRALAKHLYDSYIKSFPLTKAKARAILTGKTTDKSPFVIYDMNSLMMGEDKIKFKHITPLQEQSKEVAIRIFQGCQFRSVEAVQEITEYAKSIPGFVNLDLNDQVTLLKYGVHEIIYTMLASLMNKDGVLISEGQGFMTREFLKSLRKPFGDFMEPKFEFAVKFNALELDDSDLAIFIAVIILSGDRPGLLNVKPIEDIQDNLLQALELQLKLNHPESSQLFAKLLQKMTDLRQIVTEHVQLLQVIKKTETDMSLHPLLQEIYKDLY
Chain of PPARγ/RXR heterodimer (P19793 whole entry, chain 2 of 2): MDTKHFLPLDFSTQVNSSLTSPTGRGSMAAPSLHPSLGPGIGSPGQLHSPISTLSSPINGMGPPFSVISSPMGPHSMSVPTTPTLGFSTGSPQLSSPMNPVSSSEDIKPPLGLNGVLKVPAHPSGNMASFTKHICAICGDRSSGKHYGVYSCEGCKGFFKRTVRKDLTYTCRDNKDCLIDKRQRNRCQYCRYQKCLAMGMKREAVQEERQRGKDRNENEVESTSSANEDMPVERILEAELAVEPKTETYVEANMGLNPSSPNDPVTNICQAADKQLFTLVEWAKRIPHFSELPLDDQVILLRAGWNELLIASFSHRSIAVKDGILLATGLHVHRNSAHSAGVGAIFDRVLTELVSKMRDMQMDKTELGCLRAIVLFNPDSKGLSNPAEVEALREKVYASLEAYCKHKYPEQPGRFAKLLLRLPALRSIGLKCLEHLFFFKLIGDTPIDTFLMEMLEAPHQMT
Chain of PPARα/RXR heterodimer (Q07869 whole entry, chain 1 of 2): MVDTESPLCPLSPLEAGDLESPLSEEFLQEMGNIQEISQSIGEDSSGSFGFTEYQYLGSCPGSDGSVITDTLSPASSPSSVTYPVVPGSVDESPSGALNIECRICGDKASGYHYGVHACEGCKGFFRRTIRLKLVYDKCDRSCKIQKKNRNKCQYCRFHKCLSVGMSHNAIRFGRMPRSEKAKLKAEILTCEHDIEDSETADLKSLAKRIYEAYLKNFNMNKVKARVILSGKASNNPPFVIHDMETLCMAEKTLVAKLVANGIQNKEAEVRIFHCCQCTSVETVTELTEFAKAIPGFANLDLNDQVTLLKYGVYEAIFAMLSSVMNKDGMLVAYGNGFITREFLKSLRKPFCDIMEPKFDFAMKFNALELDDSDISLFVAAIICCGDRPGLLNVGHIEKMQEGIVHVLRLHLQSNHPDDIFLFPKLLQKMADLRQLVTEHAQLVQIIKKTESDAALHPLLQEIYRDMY
Chain of PPARα/RXR heterodimer (P19793 whole entry, chain 2 of 2): as the sequence (P19793 whole entry, chain 2 of 2) above

Sequence	binding signal (PPARα/RXR heterodimer) [KdII/KdIV]	cooperativity ratio (KdII/KdIV) (PPARγ/RXR heterodimer; [1])	cooperativity ratio (KdII/KdIV) (PPARγ/RXR heterodimer; cooperativity ratio 34 +/- 11, 80% tetrameric)
CAAAACTAGGTCAAAGGTCAAAACTAGGTCAAAGGTCA (double strand) [(DR1)2 17]	7	9	
CAAAACTAGGTCAAAGGTCATGTCTTTAGGCCCAAAACTAGGTCAAAGGTCA (double strand) [(DR1)2 31]	11.6	12.6	
CAAAACTAGGTCAAAGGTCATCAAAACTAGGTCAAAGGTCA (double strand) [(DR1)2 21]	11.2		34
